Test results: publication PMC3358469

Key:
[1] = molecular target: Dec (phage decoration protein) with a hexa-histidine tag at the C-terminus; assay: cryo-EM structure
[2] = molecular target: Dec (phage decoration protein), tagged form not told for the experiment; assay: cryo-EM structure

Sequence of Dec (phage decoration protein), tagged form not told for the experiment (Q8HAE6 whole entry): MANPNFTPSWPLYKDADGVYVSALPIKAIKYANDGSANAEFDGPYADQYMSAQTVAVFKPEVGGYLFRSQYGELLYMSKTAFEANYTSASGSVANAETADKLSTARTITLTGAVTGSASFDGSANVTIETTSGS
Sequence of Dec (phage decoration protein) with a hexa-histidine tag at the C-terminus (Q8HAE6 whole entry): as above

Substance | stoichiometry N [1] | stoichiometry N [2]
Dec (phage decoration protein) with a hexa-histidine tag at the C-terminus (natural protein) | 3 | –
Dec (phage decoration protein), tagged form not told for the experiment (natural protein) | – | 3
